T1: DLG3_3, Q92796
T1 sequence (Q92796 374-475, limits assumed, looked up): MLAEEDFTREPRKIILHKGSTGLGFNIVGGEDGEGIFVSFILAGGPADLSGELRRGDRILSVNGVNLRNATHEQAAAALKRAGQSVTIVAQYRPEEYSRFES

T2: GRIP1_4, Q9Y3R0
T2 sequence (Q9Y3R0 467-571, limits assumed, looked up): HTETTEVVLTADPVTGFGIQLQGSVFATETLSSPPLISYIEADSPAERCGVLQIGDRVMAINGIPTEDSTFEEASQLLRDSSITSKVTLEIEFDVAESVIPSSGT

T3: LIN7C, Q9NUP9
T3 sequence (Q9NUP9 88-185, limits assumed, looked up): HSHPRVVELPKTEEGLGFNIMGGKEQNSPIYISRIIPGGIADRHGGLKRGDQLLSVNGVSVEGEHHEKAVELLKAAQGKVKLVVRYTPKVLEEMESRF

T4: MPDZ_12, O75970
T4 sequence (O75970 1857-1958, limits assumed, looked up): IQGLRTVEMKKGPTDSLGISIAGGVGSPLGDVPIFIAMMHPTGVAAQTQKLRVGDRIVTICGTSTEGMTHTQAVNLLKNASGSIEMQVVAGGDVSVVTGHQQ

T5: PARD3B_1, Q8TEW8
T5 sequence (Q8TEW8 196-299, limits assumed, looked up): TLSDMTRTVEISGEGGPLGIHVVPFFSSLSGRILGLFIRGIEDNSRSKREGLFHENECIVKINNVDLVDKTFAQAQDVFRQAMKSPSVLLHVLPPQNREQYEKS

T6: RHPN1, Q8TCX5
T6 sequence (Q8TCX5 508-602, limits assumed, looked up): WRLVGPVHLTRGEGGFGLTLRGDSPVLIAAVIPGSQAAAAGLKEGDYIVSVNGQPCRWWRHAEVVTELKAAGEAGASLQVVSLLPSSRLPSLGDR

T7: SHANK1, Q9Y566
T7 sequence (Q9Y566 658-767, limits assumed, looked up): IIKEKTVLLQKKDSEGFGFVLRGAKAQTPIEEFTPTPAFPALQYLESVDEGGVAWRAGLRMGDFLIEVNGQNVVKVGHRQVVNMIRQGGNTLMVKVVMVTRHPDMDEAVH

T8: SIPA1L2, Q9P2F8
T8 sequence (Q9P2F8 945-1036, limits assumed, looked up): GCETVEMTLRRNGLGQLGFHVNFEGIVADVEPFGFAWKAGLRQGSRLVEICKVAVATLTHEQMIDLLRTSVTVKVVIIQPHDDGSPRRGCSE


How the values were obtained:
Experiment in all cases: holdup assay
Parameters in all cases: key: below the threshold = too weak to quantify, mostly under pKd 3.1 to 4
Conditions in all cases: plain residues with an end cap or a label only (N-terminal biotin on a linker: ado-ado)
[1] = biological target: ARHGEF12, Q9NZN5-2
Chain of ARHGEF12, Q9NZN5-2 (Q9NZN5 other isoform, or with tags, fused parts or gaps): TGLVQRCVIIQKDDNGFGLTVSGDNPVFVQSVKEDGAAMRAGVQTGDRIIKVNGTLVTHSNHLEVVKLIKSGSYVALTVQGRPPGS

[2] = biological target: DLG1_2, Q12959
Chain of DLG1_2, Q12959 (Q12959 314-412): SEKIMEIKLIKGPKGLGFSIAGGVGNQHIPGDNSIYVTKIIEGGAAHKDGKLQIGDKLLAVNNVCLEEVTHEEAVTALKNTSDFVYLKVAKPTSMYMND

[3] = biological target: T1, DLG3_3, Q92796
[4] = biological target: FRMPD2_1, Q68DX3
Chain of FRMPD2_1, Q68DX3 (Q68DX3 770-861): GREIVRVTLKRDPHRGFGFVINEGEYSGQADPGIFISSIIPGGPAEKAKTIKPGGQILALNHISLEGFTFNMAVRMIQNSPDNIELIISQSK

[5] = biological target: FRMPD3, Q5JV73
Chain of FRMPD3, Q5JV73 (Q5JV73 12-100): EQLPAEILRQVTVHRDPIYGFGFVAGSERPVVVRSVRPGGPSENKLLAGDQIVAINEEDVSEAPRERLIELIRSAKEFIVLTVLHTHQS

[6] = biological target: GORASP1, Q9BQQ3
Chain of GORASP1, Q9BQQ3 (Q9BQQ3 1-208): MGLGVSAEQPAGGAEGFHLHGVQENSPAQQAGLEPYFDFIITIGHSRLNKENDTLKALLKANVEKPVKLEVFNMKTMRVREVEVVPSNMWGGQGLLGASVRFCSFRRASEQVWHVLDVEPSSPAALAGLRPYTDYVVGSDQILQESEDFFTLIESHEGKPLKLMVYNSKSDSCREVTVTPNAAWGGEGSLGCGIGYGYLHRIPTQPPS

[7] = biological target: GRID2IP_2, A4D2P6
Chain of GRID2IP_2, A4D2P6 (A4D2P6 272-370): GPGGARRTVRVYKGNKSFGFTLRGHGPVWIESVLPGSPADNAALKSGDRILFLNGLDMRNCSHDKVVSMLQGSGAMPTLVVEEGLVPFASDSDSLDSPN

[8] = biological target: T2, GRIP1_4, Q9Y3R0
[9] = biological target: GRIP2_4, Q9C0E4
Chain of GRIP2_4, Q9C0E4 (Q9C0E4 446-548): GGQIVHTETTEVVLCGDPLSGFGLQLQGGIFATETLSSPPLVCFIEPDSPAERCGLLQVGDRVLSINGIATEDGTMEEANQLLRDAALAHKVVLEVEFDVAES

[10] = biological target: HTRA2, O43464
Chain of HTRA2, O43464 (O43464 355-458): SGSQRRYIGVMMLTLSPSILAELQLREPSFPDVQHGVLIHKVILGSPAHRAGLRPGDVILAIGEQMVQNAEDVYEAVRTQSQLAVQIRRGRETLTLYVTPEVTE

[11] = biological target: Inadl_1, Q8NI35
Chain of Inadl_1, Q8NI35 (Q8NI35 113-229): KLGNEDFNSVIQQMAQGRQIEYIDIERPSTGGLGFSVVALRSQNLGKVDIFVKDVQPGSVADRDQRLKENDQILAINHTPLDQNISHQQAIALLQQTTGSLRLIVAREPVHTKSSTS

[12] = biological target: Inadl_2, Q8NI35
Chain of Inadl_2, Q8NI35 (Q8NI35 238-335): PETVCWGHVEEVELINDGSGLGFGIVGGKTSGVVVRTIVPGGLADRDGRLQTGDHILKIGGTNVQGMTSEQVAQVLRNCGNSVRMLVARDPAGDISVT

[13] = biological target: Inadl_6, Q8NI35
Chain of Inadl_6, Q8NI35 (Q8NI35 1058-1167): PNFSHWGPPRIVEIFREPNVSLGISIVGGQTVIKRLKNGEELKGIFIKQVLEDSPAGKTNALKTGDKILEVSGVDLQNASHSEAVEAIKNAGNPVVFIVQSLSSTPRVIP

[14] = biological target: LDB3, O75112
Chain of LDB3, O75112 (O75112 1-94): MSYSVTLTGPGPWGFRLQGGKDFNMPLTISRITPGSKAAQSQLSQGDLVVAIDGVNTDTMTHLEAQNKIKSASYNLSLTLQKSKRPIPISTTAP

[15] = biological target: T3, LIN7C, Q9NUP9
[16] = biological target: LNX1_3, Q8TBB1
Chain of LNX1_3, Q8TBB1 (Q8TBB1 500-596): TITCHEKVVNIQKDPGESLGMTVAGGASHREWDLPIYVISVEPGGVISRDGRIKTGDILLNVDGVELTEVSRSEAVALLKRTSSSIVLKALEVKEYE

[17] = biological target: MAGI2_2, Q86UL8
Chain of MAGI2_2, Q86UL8 (Q86UL8 410-522): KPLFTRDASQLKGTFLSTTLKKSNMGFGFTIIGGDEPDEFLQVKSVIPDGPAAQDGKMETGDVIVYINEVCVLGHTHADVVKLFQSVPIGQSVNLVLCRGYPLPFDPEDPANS

[18] = biological target: MAGI2_6, Q86UL8
Chain of MAGI2_6, Q86UL8 (Q86UL8 1141-1229): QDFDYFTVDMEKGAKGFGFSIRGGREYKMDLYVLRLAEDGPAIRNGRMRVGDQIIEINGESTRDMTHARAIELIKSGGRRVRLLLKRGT

[19] = biological target: T4, MPDZ_12, O75970
[20] = biological target: NHERF2_2, Q15599
Chain of NHERF2_2, Q15599 (Q15599 142-238): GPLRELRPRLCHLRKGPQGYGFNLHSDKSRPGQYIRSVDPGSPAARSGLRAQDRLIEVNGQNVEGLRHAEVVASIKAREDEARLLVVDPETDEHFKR

[21] = biological target: NHERF4_1, Q86UT5-2
Chain of NHERF4_1, Q86UT5-2 (Q86UT5 other isoform, or with tags, fused parts or gaps): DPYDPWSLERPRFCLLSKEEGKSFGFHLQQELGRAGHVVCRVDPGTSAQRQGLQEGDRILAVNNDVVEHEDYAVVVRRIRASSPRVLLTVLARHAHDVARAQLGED

[22] = biological target: NHERF4_4, Q86UT5
Chain of NHERF4_4, Q86UT5 (Q86UT5 464-550): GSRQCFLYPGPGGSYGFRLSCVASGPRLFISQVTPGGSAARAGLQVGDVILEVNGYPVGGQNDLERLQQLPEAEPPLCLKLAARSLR

[23] = biological target: T5, PARD3B_1, Q8TEW8
[24] = biological target: PTPN3, P26045
Chain of PTPN3, P26045 (P26045 505-587): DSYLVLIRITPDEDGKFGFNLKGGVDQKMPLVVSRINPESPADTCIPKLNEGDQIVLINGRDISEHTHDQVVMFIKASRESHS

[25] = biological target: T6, RHPN1, Q8TCX5
[26] = biological target: SCRIB_3, Q14160
Chain of SCRIB_3, Q14160 (Q14160 999-1103): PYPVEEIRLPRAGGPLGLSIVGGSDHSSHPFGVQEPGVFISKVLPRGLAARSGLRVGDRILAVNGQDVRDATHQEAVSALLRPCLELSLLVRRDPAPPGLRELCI

[27] = biological target: T7, SHANK1, Q9Y566
[28] = biological target: T8, SIPA1L2, Q9P2F8
[29] = biological target: SNX27, Q96L92

Row | pKd [1] | pKd [2] | pKd [3] | pKd [4] | pKd [5] | pKd [6] | pKd [7] | pKd [8] | pKd [9] | pKd [10] | pKd [11] | pKd [12] | pKd [13] | pKd [14] | pKd [15] | pKd [16] | pKd [17] | pKd [18] | pKd [19] | pKd [20] | Binder | further results
1 | 4.68 | 5.21 | 4.89 | below the threshold | below the threshold | 3.76 | 4.2 | below the threshold | below the threshold | below the threshold | below the threshold | below the threshold | below the threshold | below the threshold | below the threshold | below the threshold | 5.92 | 3.85 | below the threshold | below the threshold | SAKVRTVTSV [RASL11B, Q9BPW5] | pKd [21]: 3.77; pKd [22]: 3.91; pKd [23]: below the threshold; pKd [24]: 4.6; pKd [25]: 3.83; pKd [26]: 4.33; pKd [27]: below the threshold; pKd [28]: below the threshold; pKd [29]: 4.73
2 | 4.77 | 5.3 | below the threshold | below the threshold | below the threshold | below the threshold | 4.17 | below the threshold | below the threshold | below the threshold | below the threshold | below the threshold | 3.95 | below the threshold | below the threshold | below the threshold | 3.86 | 4.71 | below the threshold | 3.89 | PDGQCTVTEV [RNF146, Q9NTX7] | pKd [21]: 3.89; pKd [22]: 4.02; pKd [23]: below the threshold; pKd [24]: 4.99; pKd [25]: 4.68; pKd [26]: 4.72; pKd [27]: below the threshold; pKd [28]: below the threshold; pKd [29]: 5.19
3 | 3.62 | 3.99 | below the threshold | 3.85 | 3.55 | 4.9 | 3.89 | below the threshold | below the threshold | 4.4 | below the threshold | 3.94 | 3.7 | below the threshold | below the threshold | below the threshold | below the threshold | 4.31 | 4.39 | below the threshold | YYKRPVQEWV [MMP24, Q9Y5R2] | pKd [21]: 3.47; pKd [22]: below the threshold; pKd [23]: below the threshold; pKd [24]: 3.88; pKd [25]: below the threshold; pKd [26]: 3.52; pKd [27]: below the threshold; pKd [28]: below the threshold; pKd [29]: 4.2
4 | below the threshold | below the threshold | below the threshold | below the threshold | below the threshold | below the threshold | below the threshold | below the threshold | below the threshold | below the threshold | below the threshold | below the threshold | below the threshold | below the threshold | 4.09 | below the threshold | below the threshold | below the threshold | below the threshold | below the threshold | SKSNFGSEPL [KIF17, Q9P2E2] | pKd [21]: 4.21; pKd [22]: below the threshold; pKd [23]: 3.65; pKd [24]: 3.95; pKd [25]: below the threshold; pKd [26]: below the threshold; pKd [27]: below the threshold; pKd [28]: below the threshold; pKd [29]: below the threshold
5 | below the threshold | below the threshold | below the threshold | below the threshold | below the threshold | below the threshold | below the threshold | below the threshold | below the threshold | below the threshold | below the threshold | below the threshold | below the threshold | 5.26 | below the threshold | below the threshold | below the threshold | 4.11 | below the threshold | 4.27 | DTTVPESEDL [MYOZ2, Q9NPC6] | pKd [21]: 3.92; pKd [22]: below the threshold; pKd [23]: below the threshold; pKd [24]: 4.25; pKd [25]: below the threshold; pKd [26]: below the threshold; pKd [27]: below the threshold; pKd [28]: below the threshold; pKd [29]: 3.65

— article PMC9482650, “Quantitative fragmentomics allow affinity mapping of interactomes” (Nature Communications, 2022)
